Assay [1] deals with T1, human PTPRD ECD-His6 (ACROBiosystems) (human, UniProt P23468 21-1265).
T1 chain: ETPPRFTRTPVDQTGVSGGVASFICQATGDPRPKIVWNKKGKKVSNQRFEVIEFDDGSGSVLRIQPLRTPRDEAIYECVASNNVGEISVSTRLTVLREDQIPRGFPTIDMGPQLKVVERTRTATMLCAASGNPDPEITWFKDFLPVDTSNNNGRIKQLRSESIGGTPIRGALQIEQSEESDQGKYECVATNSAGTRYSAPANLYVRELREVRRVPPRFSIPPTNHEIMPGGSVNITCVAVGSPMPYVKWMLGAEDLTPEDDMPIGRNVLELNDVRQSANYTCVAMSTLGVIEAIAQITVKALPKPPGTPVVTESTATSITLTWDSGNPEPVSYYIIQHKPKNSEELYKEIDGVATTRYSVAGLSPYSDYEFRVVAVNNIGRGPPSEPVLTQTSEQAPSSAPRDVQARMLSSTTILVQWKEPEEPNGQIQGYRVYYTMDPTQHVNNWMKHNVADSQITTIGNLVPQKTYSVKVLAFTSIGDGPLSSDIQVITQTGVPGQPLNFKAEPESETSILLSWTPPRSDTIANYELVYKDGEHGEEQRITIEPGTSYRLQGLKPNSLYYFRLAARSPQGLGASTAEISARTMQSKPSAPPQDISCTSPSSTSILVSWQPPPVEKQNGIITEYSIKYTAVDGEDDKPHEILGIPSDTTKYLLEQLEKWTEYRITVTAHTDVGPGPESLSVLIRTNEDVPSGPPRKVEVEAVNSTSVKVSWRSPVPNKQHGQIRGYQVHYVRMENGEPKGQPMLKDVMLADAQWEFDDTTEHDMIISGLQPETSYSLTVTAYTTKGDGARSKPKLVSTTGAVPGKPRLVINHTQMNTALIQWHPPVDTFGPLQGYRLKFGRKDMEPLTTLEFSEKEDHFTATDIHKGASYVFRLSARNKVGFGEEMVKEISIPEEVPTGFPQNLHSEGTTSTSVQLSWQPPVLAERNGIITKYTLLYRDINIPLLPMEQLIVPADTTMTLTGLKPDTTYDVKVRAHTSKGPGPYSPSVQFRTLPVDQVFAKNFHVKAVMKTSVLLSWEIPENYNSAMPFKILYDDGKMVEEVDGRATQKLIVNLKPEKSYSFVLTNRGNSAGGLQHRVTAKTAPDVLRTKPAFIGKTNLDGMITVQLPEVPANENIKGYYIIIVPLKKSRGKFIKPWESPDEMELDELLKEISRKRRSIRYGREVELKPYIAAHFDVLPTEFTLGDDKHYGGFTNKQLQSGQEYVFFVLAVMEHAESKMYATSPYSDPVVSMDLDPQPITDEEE
As to the kind of experiment: BLI. (BLI is a label-free optical method that tracks binding on a fibre tip over time.)

The target in assay [2] is T2, L1CAM ECD-His6 (777-NC-100, R&D Systems) (UniProt P32004 20-1120).
T2 chain: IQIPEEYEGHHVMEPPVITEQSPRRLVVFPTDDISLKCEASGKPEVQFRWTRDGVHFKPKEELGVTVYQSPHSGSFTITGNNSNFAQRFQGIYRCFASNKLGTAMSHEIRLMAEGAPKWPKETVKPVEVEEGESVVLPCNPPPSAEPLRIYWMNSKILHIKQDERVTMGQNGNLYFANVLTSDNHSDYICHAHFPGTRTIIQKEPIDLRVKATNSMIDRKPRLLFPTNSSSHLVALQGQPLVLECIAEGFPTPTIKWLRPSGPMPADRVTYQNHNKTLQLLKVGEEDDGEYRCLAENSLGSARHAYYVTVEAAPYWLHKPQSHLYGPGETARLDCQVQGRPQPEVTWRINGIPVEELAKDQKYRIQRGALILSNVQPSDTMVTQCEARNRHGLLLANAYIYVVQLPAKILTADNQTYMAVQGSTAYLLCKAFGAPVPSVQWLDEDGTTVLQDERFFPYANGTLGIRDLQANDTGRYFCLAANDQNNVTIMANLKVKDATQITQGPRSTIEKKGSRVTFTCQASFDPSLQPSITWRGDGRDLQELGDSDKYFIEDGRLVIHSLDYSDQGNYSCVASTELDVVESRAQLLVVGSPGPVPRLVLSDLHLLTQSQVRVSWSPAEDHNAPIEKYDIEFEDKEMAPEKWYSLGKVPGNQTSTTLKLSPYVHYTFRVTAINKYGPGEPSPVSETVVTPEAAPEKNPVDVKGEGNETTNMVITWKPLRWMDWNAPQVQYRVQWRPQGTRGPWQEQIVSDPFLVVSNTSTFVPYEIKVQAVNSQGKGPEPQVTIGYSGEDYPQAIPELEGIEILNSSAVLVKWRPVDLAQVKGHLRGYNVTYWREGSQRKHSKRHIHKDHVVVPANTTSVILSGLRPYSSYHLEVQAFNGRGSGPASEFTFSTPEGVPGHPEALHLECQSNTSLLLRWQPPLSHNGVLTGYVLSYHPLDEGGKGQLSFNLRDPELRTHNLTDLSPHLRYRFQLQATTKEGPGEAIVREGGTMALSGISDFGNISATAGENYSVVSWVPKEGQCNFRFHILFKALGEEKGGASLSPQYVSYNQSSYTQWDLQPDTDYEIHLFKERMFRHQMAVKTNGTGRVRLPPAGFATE
As to the kind of experiment: BLI.

The target in assay [3] is T3, human Neurofascin ECD-His6 (8208-NF-050, R&D Systems) (human).
T3 chain: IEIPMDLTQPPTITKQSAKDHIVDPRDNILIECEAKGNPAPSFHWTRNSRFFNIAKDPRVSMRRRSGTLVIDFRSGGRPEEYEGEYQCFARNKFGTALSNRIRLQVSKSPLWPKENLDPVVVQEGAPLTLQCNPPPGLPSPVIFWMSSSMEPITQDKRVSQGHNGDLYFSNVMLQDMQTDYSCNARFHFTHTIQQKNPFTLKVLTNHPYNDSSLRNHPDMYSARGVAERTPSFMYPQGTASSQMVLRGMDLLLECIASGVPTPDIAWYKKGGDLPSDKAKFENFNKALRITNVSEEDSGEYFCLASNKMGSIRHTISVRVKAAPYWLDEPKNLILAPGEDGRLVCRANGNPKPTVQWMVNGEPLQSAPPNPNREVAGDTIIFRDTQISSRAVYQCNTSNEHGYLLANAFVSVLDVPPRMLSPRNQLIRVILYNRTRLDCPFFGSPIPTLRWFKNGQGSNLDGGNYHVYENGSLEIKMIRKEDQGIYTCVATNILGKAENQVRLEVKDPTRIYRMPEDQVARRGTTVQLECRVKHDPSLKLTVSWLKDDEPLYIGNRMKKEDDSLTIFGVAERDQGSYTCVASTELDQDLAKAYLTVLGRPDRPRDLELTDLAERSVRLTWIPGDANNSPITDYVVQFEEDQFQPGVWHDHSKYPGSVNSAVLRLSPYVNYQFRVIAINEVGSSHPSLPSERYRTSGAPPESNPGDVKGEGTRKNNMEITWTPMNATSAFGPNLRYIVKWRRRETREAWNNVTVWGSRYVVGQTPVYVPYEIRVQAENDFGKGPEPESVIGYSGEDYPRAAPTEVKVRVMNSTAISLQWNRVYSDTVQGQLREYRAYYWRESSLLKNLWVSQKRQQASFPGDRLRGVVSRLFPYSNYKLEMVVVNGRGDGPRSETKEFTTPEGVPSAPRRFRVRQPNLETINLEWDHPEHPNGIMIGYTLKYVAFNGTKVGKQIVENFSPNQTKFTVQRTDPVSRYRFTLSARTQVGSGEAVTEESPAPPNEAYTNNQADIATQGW
As to the kind of experiment: BLI.

Assay [4] deals with human Neurofascin ECD-His6 (human, UniProt O94856 25-1217, Mammalian-expressed glycoprotein is likely. C-terminal His6 tag omitted. The limits are not printed. The paper names catalogue 8208-NF-050 as Neurofascin 155, so the chain runs from after the signal p). As to the kind of experiment: quartz crystal microbalance; SLITRK1 ECD-Fc (about 200 fmol) immobilised on the 27 MHz gold resonator through anti-human IgG Fc-HRP; ECD-His6 proteins added in solution; 50 mM Tris-HCl pH 7.6, 15 mM NaCl, 140 mM KCl, 0.5 mM MgCl2, 2 mM CaCl2; 25 ± 1 °C; kon and koff from 1/τ against concentration, KD = koff/kon; each sheet row is one experiment. To be noted: both partners purified.

In another assay the target is T4, human PTPRD ECD-His6 (human, UniProt P23468 21-1265).
T4 construct: human PTPRD (receptor-type protein tyrosine phosphatase delta) extracellular domain; No catalogue number printed; also called PTPRδ; source: bought: ACROBiosystems
T4 sequence (looked up): T1 chain
The assay is described as above. To be noted: both partners purified.

Numbering of substitutions follows the chain as printed. Numbers in names are those of the source. Where “and” joins values, the source holds several entries; their conditions need not be identical. Identical values can stand only once.

B1: SLITRK1 ECD-immunoglobulin Fc domain-fusion protein (SLITRK1-WT-Fc) (Fc fusion)
chain: NVTGDVCKEKICSCNEIEGDLHVDCEKKGFTSLQRFTAPTSQFYHLFLHGNSLTRLFPNEFANFYNAVSLHMENNGLHEIVPGAFLGLQLVKRLHINNNKIKSFRKQTFLGLDDLEYLQADFNLLRDIDPGAFQDLNKLEVLILNDNLISTLPANVFQYVPITHLDLRGNRLKTLPYEEVLEQIPGIAEILLEDNPWDCTCDLLSLKEWLENIPKNALIGRVVCEAPTRLQGKDLNETTEQDLCPLKNRVDSSLPAPPAQEETFAPGPLPTPFKTNGQEDHATPGSAPNGGTKIPGNWQIKIRPTAAIATGSSRNKPLANSLPCPGGCSCDHIPGSGLKMNCNNRNVSSLADLKPKLSNVQELFLRDNKIHSIRKSHFVDYKNLILLDLGNNNIATVENNTFKNLLDLRWLYMDSNYLDTLSREKFAGLQNLEYLNVEYNAIQLILPGTFNAMPKLRILILNNNLLRSLPVDVFAGVSLSKLSLHNNYFMYLPVAGVLDQLTSIIQIDLHGNPWECSCTIVPFKQWAERLGSEVLMSDLKCETPVNFFRKDFMLLSNDEICPQLYARISPTLTSHSKNSTGLAETGTHSNSYLDTSRVS
In general, koff refers to the first-order rate constant of dissociation. A high value points to fast dissociation. Turning to B1, the figures for the koff in assay [1], in assay [2] and in assay [3] were 0.00351 s⁻¹, 0.00088 s⁻¹ and 0.00256 s⁻¹, respectively.

B2: SLITRK1-A444S-Fc (Fc fusion, human, UniProt Q96PX8 18-616, looked up)
chain: B1 chain with A427S
notes: signal peptide in the construct; human SLITRK1 extracellular domain, amino acid number 1-616 in NP_443142, with the patient-derived mutation A444S; A444S was found in patients with BPD, so it occurs in nature; also called SLITRK1 ECD-Fc A444S
As a reminder, the Kd is the equilibrium constant for the complex coming apart. A higher Kd goes with a looser complex. By kon is commonly meant the rate constant with which the complex forms. A high value points to fast association. Regarding B2, in assay [4], the Kd was 13.3 nM and 16.3 nM and 13.1 nM; the koff was 0.00529 s⁻¹ and 0.00613 s⁻¹ and 0.00588 s⁻¹; the kon is 398000 M⁻¹ s⁻¹ and 376000 M⁻¹ s⁻¹ and 451000 M⁻¹ s⁻¹.

B3: SLITRK1 ECD-immunoglobulin Fc domain-fusion protein (SLITRK1-WT-Fc) (Fc fusion, human, UniProt Q96PX8 18-616, looked up)
chain: B1 chain
notes: signal peptide in the construct; human SLITRK1 extracellular domain, amino acid number 1-616 in NP_443142; Held on the resonator through anti-human IgG Fc; also called SLITRK1 ECD-Fc
As for B3, in assay [4], the Kd is 18.7 nM and 15.5 nM and 15.7 nM; the koff is 0.00278 s⁻¹ and 0.00247 s⁻¹ and 0.00243 s⁻¹; the kon was 154000 M⁻¹ s⁻¹ and 149000 M⁻¹ s⁻¹ and 159000 M⁻¹ s⁻¹. In addition, in the assay with human PTPRD ECD-His6, the Kd is 110 nM and 202 nM and 144 nM; the koff was 0.00348 s⁻¹ and 0.00358 s⁻¹ and 0.00347 s⁻¹; the kon was 31600 M⁻¹ s⁻¹ and 17700 M⁻¹ s⁻¹ and 24100 M⁻¹ s⁻¹.

B4: SLITRK1-S330A-Fc (Fc fusion, human, UniProt Q96PX8 18-616, looked up)
chain: B1 chain with S313A
notes: signal peptide in the construct; human SLITRK1 extracellular domain, amino acid number 1-616 in NP_443142, with the patient-derived mutation S330A; S330A was found in patients (SCZ/BPD) and controls, so it occurs in nature; also called SLITRK1 ECD-Fc S330A
Turning to B4, in assay [4], the Kd was 44.8 nM and 64.2 nM and 68.8 nM; the koff is 0.00635 s⁻¹ and 0.00732 s⁻¹ and 0.00627 s⁻¹; the kon was 142000 M⁻¹ s⁻¹ and 91200 M⁻¹ s⁻¹ and 114000 M⁻¹ s⁻¹.
